Patent publication US20200376013

Test system: SDM-145

hMMP-9, sequence (chain, as listed by the source): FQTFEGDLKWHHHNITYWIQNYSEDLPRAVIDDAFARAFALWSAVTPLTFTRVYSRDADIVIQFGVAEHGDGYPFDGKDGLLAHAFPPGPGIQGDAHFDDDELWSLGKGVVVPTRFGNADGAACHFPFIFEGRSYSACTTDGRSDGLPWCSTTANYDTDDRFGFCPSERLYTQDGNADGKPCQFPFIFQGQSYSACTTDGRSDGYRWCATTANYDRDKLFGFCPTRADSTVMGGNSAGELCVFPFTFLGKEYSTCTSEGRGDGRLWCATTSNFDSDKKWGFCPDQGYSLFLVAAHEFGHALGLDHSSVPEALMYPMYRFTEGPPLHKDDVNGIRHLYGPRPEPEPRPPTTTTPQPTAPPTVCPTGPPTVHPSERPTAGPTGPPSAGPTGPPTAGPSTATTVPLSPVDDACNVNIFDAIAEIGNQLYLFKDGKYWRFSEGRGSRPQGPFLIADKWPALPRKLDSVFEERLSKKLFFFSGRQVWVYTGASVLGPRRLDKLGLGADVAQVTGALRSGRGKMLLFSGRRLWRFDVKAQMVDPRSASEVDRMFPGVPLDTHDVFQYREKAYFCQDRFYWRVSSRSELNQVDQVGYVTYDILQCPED

Substance	cleavage followed by LC-MS with fluorescence detection (ex 480 nm, em 560 nm), TCNB buffer pH 7.5, 37 C	cleavage followed by LC-MS with fluorescence detection (ex 480 nm, em 560 nm), sodium acetate buffer pH 5.0, 37 C
hMMP-9	The cleavage reaction was complete after 17 hour.	
Cathepsin B, human liver		The cleavage reaction was complete after 17 hour.
